Assays:
[1] = target: T1, CD7 (human, UniProt P09564 26-180, limits assumed); experiment: SPR
T1 construct: also called human CD7
T1 sequence (looked up): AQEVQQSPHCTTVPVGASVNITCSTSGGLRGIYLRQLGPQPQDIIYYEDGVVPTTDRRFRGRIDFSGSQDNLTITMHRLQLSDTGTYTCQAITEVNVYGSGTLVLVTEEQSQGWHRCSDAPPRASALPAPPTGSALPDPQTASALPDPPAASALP

[2] = target: T1, CD7; experiment: SPR; ratio of KD to WT

B1: 7-AA-1 (antibody, V domains shown)
VH: QVQLQESGAELVKPGASVKLSCKASGYTFTSYWMHWVKQRPGQGLEWIGKINPSNGRTNYNEKFKSKATLTVDKSSSTAYMQLSSLTSEDSAVYYCARGGVYYDLYYAALDYWGQGTTVTVSS
VL: DIELTQSPATLSVTPGDSVSLSCRASQSISNNLHWYQQKSHESPRLLIKSASQSISGIPSRFSGSGSGTDFTLSINSVETEDFGMYFCQQSNSWPYTFGGGTKLEIKR
For B1, the Kd [1] was 44.5 nM and the “Fold reduction in binding affinity compared to WT (Kd)” value [2] was 17 fold.

Reference: US20240092898A1 (BIVICTRIX, published 2024)
